Results: paper PMC5513132, “Two bifunctional enzymes from the marine protist Thraustochytrium roseum: biochemical characterization of wax ester synthase/acyl-CoA:diacylglycerol acyltransferase activity catalyzing wax ester and triacylglycerol synthesis” (Biotechnology for Biofuels, 2017)

Assays:
Assay in all cases: purified protein
Type in all cases: biochemical, Thraustochytrium roseum
Conditions in all cases: 100 μM hexadecanol, pH 7.4, 37 °C, acyl-CoA varied 15-90 μM
[1] = tested on: CC/C=C\C/C=C\C/C=C\C/C=C\C/C=C\CCCC(=O)SCCNC(=O)CCNC(=O)[C@H](O)C(C)(C)COP(=O)(O)OP(=O)(O)OC[C@H]1O[C@@H](n2cnc3c(N)ncnc32)[C@H](O)[C@@H]1OP(=O)(O)O
[2] = tested on: CCCCC/C=C\C/C=C\C/C=C\C/C=C\CCCC(=O)SCCNC(=O)CCNC(=O)[C@H](O)C(C)(C)COP(=O)(O)OP(=O)(O)OC[C@H]1O[C@@H](n2cnc3c(N)ncnc32)[C@H](O)[C@@H]1OP(=O)(O)O
[3] = tested on: CCCCC/C=C\C/C=C\C/C=C\CCCCC(=O)SCCNC(=O)CCNC(=O)[C@H](O)C(C)(C)COP(=O)(O)OP(=O)(O)OC[C@H]1O[C@@H](n2cnc3c(N)ncnc32)[C@H](O)[C@@H]1OP(=O)(O)O
[4] = tested on: CCCCCCCC(=O)SCCNC(=O)CCNC(=O)[C@H](O)C(C)(C)COP(=O)(O)OP(=O)(O)OC[C@H]1O[C@@H](n2cnc3c(N)ncnc32)[C@H](O)[C@@H]1OP(=O)(O)O
[5] = tested on: CCCCCCCCCC(=O)SCCNC(=O)CCNC(=O)[C@H](O)C(C)(C)COP(=O)(O)OP(=O)(O)OC[C@H]1O[C@@H](n2cnc3c(N)ncnc32)[C@H](O)[C@@H]1OP(=O)(O)O
[6] = tested on: CCCCCCCCCCCC(=O)SCCNC(=O)CCNC(=O)[C@H](O)C(C)(C)COP(=O)(O)OP(=O)(O)OC[C@H]1O[C@@H](n2cnc3c(N)ncnc32)[C@H](O)[C@@H]1OP(=O)(O)O
[7] = tested on: CCCCCCCCCCCCCC(=O)SCCNC(=O)CCNC(=O)[C@H](O)C(C)(C)COP(=O)(O)OP(=O)(O)OC[C@H]1O[C@@H](n2cnc3c(N)ncnc32)[C@H](O)[C@@H]1OP(=O)(O)O
[8] = tested on: CCCCCCCCCCCCCCCC(=O)SCCNC(=O)CCNC(=O)[C@H](O)C(C)(C)COP(=O)(O)OP(=O)(O)OC[C@H]1O[C@@H](n2cnc3c(N)ncnc32)[C@H](O)[C@@H]1OP(=O)(O)O
[9] = tested on: CCCCCCCCCCCCCCCCCC(=O)SCCNC(=O)CCNC(=O)[C@H](O)C(C)(C)COP(=O)(O)OP(=O)(O)OC[C@H]1O[C@@H](n2cnc3c(N)ncnc32)[C@H](O)[C@@H]1OP(=O)(O)O
purified protein [10] = substrate: CC/C=C\C/C=C\C/C=C\C/C=C\C/C=C\CCCC(=O)SCCNC(=O)CCNC(=O)[C@H](O)C(C)(C)COP(=O)(O)OP(=O)(O)OC[C@H]1O[C@@H](n2cnc3c(N)ncnc32)[C@H](O)[C@@H]1OP(=O)(O)O; remark: listed apart in the source
purified protein [11] = substrate: CCCCC/C=C\C/C=C\C/C=C\C/C=C\CCCC(=O)SCCNC(=O)CCNC(=O)[C@H](O)C(C)(C)COP(=O)(O)OP(=O)(O)OC[C@H]1O[C@@H](n2cnc3c(N)ncnc32)[C@H](O)[C@@H]1OP(=O)(O)O; remark: listed apart in the source
purified protein [12] = substrate: CCCCC/C=C\C/C=C\C/C=C\CCCCC(=O)SCCNC(=O)CCNC(=O)[C@H](O)C(C)(C)COP(=O)(O)OP(=O)(O)OC[C@H]1O[C@@H](n2cnc3c(N)ncnc32)[C@H](O)[C@@H]1OP(=O)(O)O; remark: listed apart in the source
purified protein [13] = substrate: CCCCCCCC(=O)SCCNC(=O)CCNC(=O)[C@H](O)C(C)(C)COP(=O)(O)OP(=O)(O)OC[C@H]1O[C@@H](n2cnc3c(N)ncnc32)[C@H](O)[C@@H]1OP(=O)(O)O; remark: listed apart in the source
purified protein [14] = substrate: CCCCCCCCCC(=O)SCCNC(=O)CCNC(=O)[C@H](O)C(C)(C)COP(=O)(O)OP(=O)(O)OC[C@H]1O[C@@H](n2cnc3c(N)ncnc32)[C@H](O)[C@@H]1OP(=O)(O)O; remark: listed apart in the source
purified protein [15] = substrate: CCCCCCCCCCCC(=O)SCCNC(=O)CCNC(=O)[C@H](O)C(C)(C)COP(=O)(O)OP(=O)(O)OC[C@H]1O[C@@H](n2cnc3c(N)ncnc32)[C@H](O)[C@@H]1OP(=O)(O)O; remark: listed apart in the source
purified protein [16] = substrate: CCCCCCCCCCCCCC(=O)SCCNC(=O)CCNC(=O)[C@H](O)C(C)(C)COP(=O)(O)OP(=O)(O)OC[C@H]1O[C@@H](n2cnc3c(N)ncnc32)[C@H](O)[C@@H]1OP(=O)(O)O; remark: listed apart in the source
purified protein [17] = substrate: CCCCCCCCCCCCCCCC(=O)SCCNC(=O)CCNC(=O)[C@H](O)C(C)(C)COP(=O)(O)OP(=O)(O)OC[C@H]1O[C@@H](n2cnc3c(N)ncnc32)[C@H](O)[C@@H]1OP(=O)(O)O; remark: listed apart in the source
purified protein [18] = substrate: CCCCCCCCCCCCCCCCCC(=O)SCCNC(=O)CCNC(=O)[C@H](O)C(C)(C)COP(=O)(O)OP(=O)(O)OC[C@H]1O[C@@H](n2cnc3c(N)ncnc32)[C@H](O)[C@@H]1OP(=O)(O)O; remark: listed apart in the source

TrWSD5 (ΔTmTrWSD5) (Thraustochytrium roseum; DEL472-494)
Km [1]: 106.2 µM | Vmax [1]: 0.312 µmol/min/mg | kcat [1]: 0.498 s⁻¹ | kcat/Km [1]: 4690 M⁻¹ s⁻¹ | Km [2]: 226.35 µM | Vmax [2]: 0.103 µmol/min/mg | kcat [2]: 0.165 s⁻¹ | kcat/Km [2]: 729 M⁻¹ s⁻¹ | Km [3]: 284.68 µM | Vmax [3]: 0.152 µmol/min/mg | kcat [3]: 0.242 s⁻¹ | kcat/Km [3]: 850 M⁻¹ s⁻¹ | Km [4]: 12.25 µM | Vmax [4]: 0.0639 µmol/min/mg | kcat [4]: 0.102 s⁻¹ | kcat/Km [4]: 8330 M⁻¹ s⁻¹ | Km [5]: 0.96 µM | Vmax [5]: 0.0589 µmol/min/mg | kcat [5]: 0.0941 s⁻¹ | kcat/Km [5]: 98300 M⁻¹ s⁻¹ | Km [6]: 25.93 µM | Vmax [6]: 0.152 µmol/min/mg | kcat [6]: 0.243 s⁻¹ | kcat/Km [6]: 9370 M⁻¹ s⁻¹ | Km [7]: 18.5 µM | Vmax [7]: 0.207 µmol/min/mg | kcat [7]: 0.331 s⁻¹ | kcat/Km [7]: 17900 M⁻¹ s⁻¹ | Km [8]: 24.77 µM | Vmax [8]: 0.213 µmol/min/mg | kcat [8]: 0.341 s⁻¹ | kcat/Km [8]: 13700 M⁻¹ s⁻¹ | Km [9]: 75.87 µM | Vmax [9]: 0.379 µmol/min/mg | kcat [9]: 0.604 s⁻¹ | kcat/Km [9]: 7960 M⁻¹ s⁻¹

B1: TrWSD4 (Thraustochytrium roseum) (protein)
chain: MAENNNHLDEAVVDEAQREQDVEVEEEVEEEEEEEEEEEEEAVVEDVKATLADGPAEKSPKVAPKQTKRKGRRVKHRASVTTRLIGNLQREAQSKSSWVVGLLFFKSDPGFEAVRETVGKRLLQIPRFRSKLTARRFPAKMEFVELDDDEIDMDYHFRQAFQDRTATLDEVDEFVGSMFDGFNHPMDKPLWQITYIPKLEDGRAVLITNISHIVGDGIAQVEVLMRLLDPVKESKGEKVQKPRTGANKKRKPPALGPFTKAKVFMGGVWEGFFSVISSPDKKNTLRLKDVNKPSPTKRCTFSETIPLDKVKELKNMYEGATLNDVLVTLLTLTLRAYFREVGDKGALRNKVRAQFPINIRSKSEGPFRNDNPRNKFTYGFMPFHVSGNRDASATFWRTKRTLDKIKSSPSPVVQHQVGKVISNIMPLKALNAQLLNLAAKATAQVSNVPGPQDAVTVAGTEVDDMRFLLYSPLSFYVGLLTYNGNLSASFCIDSALADPRLISKHWLPEFEKFYAHAKEAAGESGLIRKPRSCLDCL
Km (purified protein [10]): 131.16 µM | Vmax (purified protein [10]): 0.00905 µmol/min/mg | kcat (purified protein [10]): 0.0114 s⁻¹ | kcat/Km (purified protein [10]): 86.6 M⁻¹ s⁻¹ | Km (purified protein [11]): 297.17 µM | Vmax (purified protein [11]): 0.0118 µmol/min/mg | kcat (purified protein [11]): 0.0148 s⁻¹ | kcat/Km (purified protein [11]): 49.9 M⁻¹ s⁻¹ | Km (purified protein [12]): 280.86 µM | Vmax (purified protein [12]): 0.0188 µmol/min/mg | kcat (purified protein [12]): 0.0236 s⁻¹ | kcat/Km (purified protein [12]): 84 M⁻¹ s⁻¹ | Km (purified protein [13]): 29.93 µM | Vmax (purified protein [13]): 0.0148 µmol/min/mg | kcat (purified protein [13]): 0.0185 s⁻¹ | kcat/Km (purified protein [13]): 619 M⁻¹ s⁻¹ | Km (purified protein [14]): 17.6 µM | Vmax (purified protein [14]): 0.0122 µmol/min/mg | kcat (purified protein [14]): 0.0154 s⁻¹ | kcat/Km (purified protein [14]): 873 M⁻¹ s⁻¹ | Km (purified protein [15]): 0.14 µM | Vmax (purified protein [15]): 0.0161 µmol/min/mg | kcat (purified protein [15]): 0.0202 s⁻¹ | kcat/Km (purified protein [15]): 146000 M⁻¹ s⁻¹ | Km (purified protein [16]): 3.94 µM | Vmax (purified protein [16]): 0.0202 µmol/min/mg | kcat (purified protein [16]): 0.0254 s⁻¹ | kcat/Km (purified protein [16]): 6440 M⁻¹ s⁻¹ | Km (purified protein [17]): 3.08 µM | Vmax (purified protein [17]): 0.0255 µmol/min/mg | kcat (purified protein [17]): 0.032 s⁻¹ | kcat/Km (purified protein [17]): 10400 M⁻¹ s⁻¹ | Km (purified protein [18]): 19.15 µM | Vmax (purified protein [18]): 0.0302 µmol/min/mg | kcat (purified protein [18]): 0.0379 s⁻¹ | kcat/Km (purified protein [18]): 1980 M⁻¹ s⁻¹
